By EC50 is commonly meant the midpoint of the concentration-response curve. By EC50 (read off the curve) is commonly meant the concentration giving half of the maximal effect. A word on the Kd: it is the free concentration of one partner at which half of the binding sites on the other are occupied at equilibrium, for simple one-to-one binding.

The source of these data is patent publication US20200332017A1.

Assay [1] concerns the target full length human CD40 (uniprot # P25942-1) on the membrane of 293T-CD40 cells (human) (UniProt P25942). In words: flow cytometry on 293T-CD40 cells. Background: In flow cytometry, cells or beads pass a laser one at a time.
The target is the same in assay [2]. Nature of the assay: flow cytometry on 293T-CD40 cells, PE-labeled secondary antibody, MFI.
The target in assay [3] is human CD40-Fc protein (amino acid residue 21-193 of SEQ ID NO: 67 linked to N-terminus of amino acid residue 99-330 of SEQ ID NO.: 24) (human). Nature of the assay: capture ELISA, biotin human CD40-Fc; mAb at 400 ng/mL.
Chain of human CD40-Fc protein (amino acid residue 21-193 of SEQ ID NO: 67 linked to N-terminus of amino acid residue 99-330 of SEQ ID NO.: 24) (human) (chain, as listed by the source): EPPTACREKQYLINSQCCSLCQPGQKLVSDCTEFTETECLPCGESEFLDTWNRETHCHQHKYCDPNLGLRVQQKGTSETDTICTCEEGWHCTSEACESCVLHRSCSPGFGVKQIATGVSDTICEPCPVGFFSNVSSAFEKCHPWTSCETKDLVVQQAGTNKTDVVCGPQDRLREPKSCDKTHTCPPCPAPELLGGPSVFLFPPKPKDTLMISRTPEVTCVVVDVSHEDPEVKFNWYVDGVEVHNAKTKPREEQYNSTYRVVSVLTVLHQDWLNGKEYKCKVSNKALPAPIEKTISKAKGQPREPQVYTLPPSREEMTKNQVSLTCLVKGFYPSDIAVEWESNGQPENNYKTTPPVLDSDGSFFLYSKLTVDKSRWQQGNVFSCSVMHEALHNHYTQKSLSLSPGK
For assay [4] the target is unchanged. In words: capture ELISA (antibody captured on coated goat anti-human IgG F(ab')2, biotin-labeled human CD40-Fc in solution, streptavidin-HRP, OD(450-630)).
The target is the same in assay [5]. Nature of the assay: capture ELISA; antibody captured, biotin-labeled human CD40-Fc in solution.
Assay [6] shares this target. Nature of the assay: capture ELISA, biotin human CD40-Fc; mAb at 0.64 ng/mL. A general note: An ELISA detects its analyte on a solid surface through an enzyme-linked reagent.
For assay [7] the target is unchanged. In words: ligand blocking ELISA: human CD40-Fc coated, antibody titrated, then biotin-labeled human CD40L-his (blocked ligand), streptavidin-HRP, OD(450-630).
For assay [8], the target named is Human CD40-his protein (Acro biosystems, Cat # CD0-H5228) (human) (UniProt P25942). In words: SPR, Biacore; antibody captured, human CD40-his flowed. On the technique in general: SPR reads the build-up and loss of mass on a sensor chip optically.
Chain of Human CD40-his protein (Acro biosystems, Cat # CD0-H5228) (human) (P25942 21-193 limits assumed): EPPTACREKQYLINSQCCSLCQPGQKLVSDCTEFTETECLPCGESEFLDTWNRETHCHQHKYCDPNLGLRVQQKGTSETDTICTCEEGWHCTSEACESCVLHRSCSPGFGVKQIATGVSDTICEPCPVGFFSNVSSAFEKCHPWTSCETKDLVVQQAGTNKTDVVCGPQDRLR
Assay [9] addresses human CD40-Fc protein (amino acid residue 21-193 of SEQ ID NO: 67 linked to N-terminus of amino acid residue 99-330 of SEQ ID NO.: 24) (human). Nature of the assay: capture ELISA; antibody captured, biotin-labeled human CD40-Fc in solution. The source holds these as a separate data set.
Assay [10] concerns the target Human CD40-his protein (Acro biosystems, Cat # CD0-H5228) (human) (UniProt P25942). Nature of the assay: SPR, Biacore T200; antibody captured, antigen flowed; 1:1 Langmuir fit.
The target of assay [11] is cynomolgus monkey CD40-his protein (Acro biosystems, Cat # CD0-052H6) (cynomolgus monkey) (UniProt G7PG38). Nature of the assay: SPR, Biacore; cynomolgus CD40-his.
Chain of cynomolgus monkey CD40-his protein (Acro biosystems, Cat # CD0-052H6) (cynomolgus monkey) (G7PG38 entry or part of it limits assumed): as the sequence (P25942 21-193 limits assumed) above, with G43S, H56R, R70Q, W89L, A95S, L101P, S106L, H142R, L172Q counted along it
The target in assay [12] is human CD40-Fc protein (amino acid residue 21-193 of SEQ ID NO: 67 linked to N-terminus of amino acid residue 99-330 of SEQ ID NO.: 24) (human). In words: capture ELISA, biotin human CD40-Fc; mAb at 80 ng/mL.
Assay [13] addresses full length human CD40 (uniprot # P25942-1) on the membrane of 293T-CD40 cells (human) (UniProt P25942). Nature of the assay: flow cytometry on 293T-CD40 cells. This is another data set of the same source.
The target of assay [14] is human CD40-Fc protein (amino acid residue 21-193 of SEQ ID NO: 67 linked to N-terminus of amino acid residue 99-330 of SEQ ID NO.: 24) (human). Nature of the assay: capture ELISA; antibody captured, biotin-labeled human CD40-Fc in solution. The source holds these as a separate data set.
For assay [15], the target named is full length human CD40 (uniprot # P25942-1) on the membrane of 293T-CD40 cells (human) (UniProt P25942). In words: cell-based or functional assay.
Chain of full length human CD40 (uniprot # P25942-1) on the membrane of 293T-CD40 cells (human) (P25942 21-277 limits assumed): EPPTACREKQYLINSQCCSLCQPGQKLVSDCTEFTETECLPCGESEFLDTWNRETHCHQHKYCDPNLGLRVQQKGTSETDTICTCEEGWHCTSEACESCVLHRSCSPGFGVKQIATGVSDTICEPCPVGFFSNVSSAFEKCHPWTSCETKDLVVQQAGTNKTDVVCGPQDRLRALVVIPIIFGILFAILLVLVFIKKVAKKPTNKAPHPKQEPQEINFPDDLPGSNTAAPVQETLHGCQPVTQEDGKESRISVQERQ
Assay [16] deals with human CD40-Fc protein (amino acid residue 21-193 of SEQ ID NO: 67 linked to N-terminus of amino acid residue 99-330 of SEQ ID NO.: 24) (human). Nature of the assay: capture ELISA, biotin human CD40-Fc; mAb at 3.2 ng/mL.
Assay [17] concerns the target full length human CD40 (uniprot # P25942-1) on the membrane of 293T-CD40 cells (human) (UniProt P25942). In words: flow cytometry on 293T-CD40 cells, PE-labeled secondary antibody, MFI. The source holds these as a separate data set.
Assay [18] addresses human CD40-Fc protein (amino acid residue 21-193 of SEQ ID NO: 67 linked to N-terminus of amino acid residue 99-330 of SEQ ID NO.: 24) (human). In words: capture ELISA; antibody captured, biotin-labeled human CD40-Fc in solution. The source holds these as a separate data set.
The target is the same in assay [19]. In words: capture ELISA, biotin human CD40-Fc; mAb at 2000 ng/mL.
In assay [20] the target is full length human CD40 (uniprot # P25942-1) on the membrane of 293T-CD40 cells (human) (UniProt P25942). In words: flow cytometry on 293T-CD40 cells, PE-labeled secondary antibody, MFI. This is another data set of the same source.
Assay [21] concerns the target human CD40-Fc protein (amino acid residue 21-193 of SEQ ID NO: 67 linked to N-terminus of amino acid residue 99-330 of SEQ ID NO.: 24) (human). In words: capture ELISA (antibody captured on coated anti-IgG F(ab')2, biotin-labeled human CD40-Fc in solution, streptavidin-HRP, OD(450-630)).
The target is the same in assay [22]. Nature of the assay: capture ELISA, biotin human CD40-Fc; mAb at 10000 ng/mL.
In assay [23] the target is Human CD40-his protein (Acro biosystems, Cat # CD0-H5228) (human) (UniProt P25942). Nature of the assay: SPR, Biacore; human CD40-his.
Assay [24] has as its target human CD40-Fc protein (amino acid residue 21-193 of SEQ ID NO: 67 linked to N-terminus of amino acid residue 99-330 of SEQ ID NO.: 24) (human). In words: capture ELISA, biotin human CD40-Fc; mAb at 16 ng/mL.
Assay [25] shares this target. In words: capture ELISA, biotin human CD40-Fc; mAb at 0 ng/mL (blank).
Assay [26] has the same target. Nature of the assay: capture ELISA (antibody captured on coated anti-IgG F(ab')2, biotin-labeled human CD40-Fc in solution, streptavidin-HRP, OD(450-630)). This is another data set of the same source.

“And” between values parts separate entries of the source, which are not always exact repeats. Equal entries are not always repeated. Where two headings read alike, the source gives them in different places.

Chain of BM2 (Selicrelumab, Abgenix) (antibody) (VH): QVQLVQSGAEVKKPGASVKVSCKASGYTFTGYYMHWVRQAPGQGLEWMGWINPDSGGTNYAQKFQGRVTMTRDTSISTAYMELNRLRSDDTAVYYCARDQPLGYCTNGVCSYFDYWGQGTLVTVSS
Chain of BM2 (Selicrelumab, Abgenix) (antibody) (VL): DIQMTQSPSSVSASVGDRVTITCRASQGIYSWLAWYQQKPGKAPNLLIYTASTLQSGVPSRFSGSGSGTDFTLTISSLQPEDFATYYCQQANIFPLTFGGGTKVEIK
Chain of BM1 (Dacetuzumab, Genentech Inc) (antibody) (VH): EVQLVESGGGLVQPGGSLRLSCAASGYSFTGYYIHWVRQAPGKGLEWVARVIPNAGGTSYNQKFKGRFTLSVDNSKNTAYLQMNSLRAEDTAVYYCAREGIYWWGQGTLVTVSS
Chain of BM1 (Dacetuzumab, Genentech Inc) (antibody) (VL): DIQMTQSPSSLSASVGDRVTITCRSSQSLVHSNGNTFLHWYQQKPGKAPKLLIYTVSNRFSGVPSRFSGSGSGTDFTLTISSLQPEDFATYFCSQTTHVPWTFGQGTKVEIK

As to “BM1 (Dacetuzumab, Genentech Inc) (antibody)”, the EC50 in [1] was 1.3 nM; in assay [5], 0.434 nM; in assay [9] it was 0.501 ng/mL; in [13], 0.975 nM and 0.886 nM; in assay [14], 0.33 nM; in [18], 0.335 nM. Moreover, the EC50 (read off the curve) in [2] was 0.8 nM; in [4] it was 50 ng/mL; in [17] it was 200 ng/mL; in assay [20], 1 nM; in assay [21] it was 0.4 nM. In addition, the absorbance at 450 nm in assay [3] was found to be 1.83 OD450; in assay [6] it was 0.036 OD450; in assay [12], 1.02 OD450; in assay [16] it was 0.077 OD450; in [19], 1.87 OD450; in assay [22] it was 1.99 OD450. Also, the absorbance at 450 nm was determined as 0.291 OD450 in assay [24] and 0.028 OD450 in [25]. This substance yielded an IC50 (read off the curve) in [7] of 1000 ng/mL. The Kd in [8] came to 26.3 nM; in assay [10] it was 11.1 nM; in assay [11] it was 5.85 nM; in assay [23] it was 14.1 nM. For the same substance, the Cell-based Reporter assay (EC50, nM) in assay [15] is 4.39 nM and 4.81 nM. This substance also registered a cell based functional assay (EC50, nM) in assay [15] of 4.16 nM.
On to BM2 (Selicrelumab, Abgenix) (antibody), for which the concentration for a half-maximal effect (EC50) is 2.11 nM in [1]; 1.25 nM in assay [5]; 0.886 ng/mL in assay [9]; 2.01 nM and 8.58 nM in assay [13]; 0.72 nM in assay [14]; 0.716 nM in assay [18]. The absorbance at 450 nm in [3] stood at 1.42 OD450; in [6], 0.028 OD450; in assay [12] it was 0.669 OD450; in assay [16], 0.052 OD450; in assay [19], 1.63 OD450; in [22], 1.85 OD450. Moreover, the absorbance at 450 nm in assay [24] amounted to 0.178 OD450; in [25] it was 0.029 OD450. The 50% effective concentration (EC50 (read off the curve)) is 100 ng/mL in assay [4], 100 ng/mL in [26], 300 ng/mL in assay [17] and 1 nM in assay [21]. Besides, the Kd in [8] turned out to be 15.4 nM; in assay [10] it was 5.12 nM; in assay [11], 6.03 nM; in [23] it was 12.2 nM. In assay [15], the Cell-based Reporter assay (EC50, nM) was 7.01 nM and 4.9 nM. In addition, the cell based functional assay (EC50, nM) in [15] stood at 2.89 nM.
For “Mouse IgG-NC (mouse control Ab) (antibody)”, the absorbance at 450 nm in assay [3] amounted to 0.05 OD450; in assay [6], 0.096 OD450; in assay [12], 0.087 OD450; in assay [16], 0.099 OD450; in assay [19], 0.047 OD450; in assay [22], 0.044 OD450. In addition, the absorbance at 450 nm was 0.109 OD450 in [24] and 0.125 OD450 in assay [25].
Turning to “hIgG (human immunoglobulin (pH4), for intravenous injection, Hualan Biological Engineering Inc.) (antibody)”, the absorbance at 450 nm was 0.019 OD450 in assay [3]; 0.026 OD450 in assay [6]; 0.027 OD450 in assay [12]; 0.025 OD450 in assay [16]; 0.018 OD450 in [19]; 0.023 OD450 in assay [22]. In addition, the absorbance at 450 nm came to 0.03 OD450 in assay [24] and 0.026 OD450 in assay [25].
